Measured values reported in article PMC5066248.

Biological target: His6-GroEL
Experiment: cryo-EM structure; His6-GroEL captured from clarified E. coli lysate on Ni2+-activated BSA-PABA-GO-NTA coated lacey carbon 400 mesh grids; single particle analysis of 5363 particles in EMAN 2.1 with imposed D7 symmetry; 8.1 Å (gold standard, 0.143 criteria)

His6-GroEL, sequence (A1AJ51 2-548): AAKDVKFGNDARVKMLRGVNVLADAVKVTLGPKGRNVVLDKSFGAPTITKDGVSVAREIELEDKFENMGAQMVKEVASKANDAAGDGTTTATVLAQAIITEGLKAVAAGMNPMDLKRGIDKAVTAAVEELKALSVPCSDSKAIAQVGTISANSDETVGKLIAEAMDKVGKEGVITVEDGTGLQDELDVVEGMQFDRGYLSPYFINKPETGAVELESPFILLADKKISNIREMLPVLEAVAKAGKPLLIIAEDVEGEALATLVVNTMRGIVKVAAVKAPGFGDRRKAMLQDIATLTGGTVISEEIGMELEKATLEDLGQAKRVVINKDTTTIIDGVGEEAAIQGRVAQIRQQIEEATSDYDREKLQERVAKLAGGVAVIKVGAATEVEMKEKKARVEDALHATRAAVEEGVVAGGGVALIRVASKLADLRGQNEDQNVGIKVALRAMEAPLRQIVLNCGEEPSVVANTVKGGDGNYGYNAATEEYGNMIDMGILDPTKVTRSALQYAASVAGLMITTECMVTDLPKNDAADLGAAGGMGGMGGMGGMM

Question: For His6-GroEL (natural protein), which stoichiometry N is on record?
Answer: 14
